In US7294701B2, “Antibody fragment capable of modulating multidrug resistance and compositions and kits and methods using same” (Technion Research & Development Foundation Ltd., priority 2003, dated 2007):
Where “and” joins values, the source holds several entries; their conditions need not be identical. Identical values can stand only once. Entries after “also recorded” stand apart in the source; their conditions may differ. Like-named read-outs stand apart in the source and are kept apart here.

Columns and labels:
[1] = system: non-target MRP1 control peptide; assay: ELISA binding specificity, non-target control peptide; conditions: FIG. 1b
Description: (§1) The binding specificity of the purified A2 scFv antibody was determined via ELISA. A biotinylated target peptide having the amino acid sequence of SEQ ID NO:1, or a non-target MRP1 control peptide (provided at 10 μg in 100 μl) were each immobilized onto a flexible microtiter plate using BSA-biotin-streptavidin. A purified A2 scFv was then added, at different concentrations, to the peptide-coated plate and was detected with an anti Myc tag-HRP conjugate antibody.

2780 cells = assay: calcein-AM chromophore efflux assay, drug-sensitive cells; type: cell-based, human; conditions: 2780, fluorometer, FIG. 4c
[2] = biological target: T1, Pgp drug-efflux activity in 2780^ADR cells (Homo sapiens, UniProt P08183)
T1 sequence (P08183 whole entry): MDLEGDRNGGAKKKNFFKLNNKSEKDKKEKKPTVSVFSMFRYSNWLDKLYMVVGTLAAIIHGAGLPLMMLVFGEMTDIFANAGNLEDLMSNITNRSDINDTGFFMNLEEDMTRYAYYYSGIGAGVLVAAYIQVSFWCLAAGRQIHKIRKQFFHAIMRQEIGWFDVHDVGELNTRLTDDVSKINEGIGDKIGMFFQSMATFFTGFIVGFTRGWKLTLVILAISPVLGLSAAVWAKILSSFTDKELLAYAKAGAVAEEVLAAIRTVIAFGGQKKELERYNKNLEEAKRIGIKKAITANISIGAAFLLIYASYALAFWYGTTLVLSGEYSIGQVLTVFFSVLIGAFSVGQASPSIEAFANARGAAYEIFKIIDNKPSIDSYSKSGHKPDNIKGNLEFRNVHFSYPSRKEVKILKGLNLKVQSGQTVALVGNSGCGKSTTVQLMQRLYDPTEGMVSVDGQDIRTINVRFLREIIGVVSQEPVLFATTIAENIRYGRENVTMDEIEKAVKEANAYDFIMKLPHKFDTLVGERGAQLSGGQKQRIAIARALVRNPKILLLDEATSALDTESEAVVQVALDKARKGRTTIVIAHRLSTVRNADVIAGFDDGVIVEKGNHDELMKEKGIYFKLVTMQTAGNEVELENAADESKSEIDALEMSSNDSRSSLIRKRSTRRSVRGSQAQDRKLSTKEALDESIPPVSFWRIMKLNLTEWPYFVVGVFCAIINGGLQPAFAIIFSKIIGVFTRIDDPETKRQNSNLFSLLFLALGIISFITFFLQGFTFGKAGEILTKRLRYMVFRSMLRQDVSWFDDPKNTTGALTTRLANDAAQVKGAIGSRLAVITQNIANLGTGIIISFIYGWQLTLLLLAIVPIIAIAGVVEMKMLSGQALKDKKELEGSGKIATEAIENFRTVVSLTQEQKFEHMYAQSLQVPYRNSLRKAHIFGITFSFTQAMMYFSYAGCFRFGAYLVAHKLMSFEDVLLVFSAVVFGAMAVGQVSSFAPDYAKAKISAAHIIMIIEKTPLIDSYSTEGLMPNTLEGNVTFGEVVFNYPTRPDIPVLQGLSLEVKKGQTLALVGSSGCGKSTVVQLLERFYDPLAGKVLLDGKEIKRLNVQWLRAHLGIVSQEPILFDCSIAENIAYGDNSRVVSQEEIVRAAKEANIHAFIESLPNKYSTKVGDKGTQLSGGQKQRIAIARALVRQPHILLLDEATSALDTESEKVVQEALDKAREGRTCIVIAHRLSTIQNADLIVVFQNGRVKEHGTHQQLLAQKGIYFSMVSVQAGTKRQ

[3] = system: drug-sensitive ovarian carcinoma cells 2780; assay: immunofluorescence flow-cytometer analysis of cell binding; set-up: species or system human; conditions: 2780, A2 scFv 50 μg/ml, FIG. 2a
Description: (§2) In another series of experiments, the reactivity and specificity of A2 scFv to Pgp, expressed on the surface of MDR cells, was evaluated. […] The MDR cell lines and the drug-sensitive cell lines used in these experiments are described in Table 2 below.
(§3) Cells growing on six well tissue culture plates were washed twice followed by incubation with soluble purified A2 scFv (50 μg/ml) for 90 minutes on ice. Detection was with anti-Myc (30 μg/ml) and FITC-labeled anti-mouse IgG (1:1000, Jackson). Detection of fluorescent cells was performed on a FACScalibur (Becton Dickinson).

[4] = system: drug-sensitive carcinoma cells KB3-1; assay: as above; set-up: species or system human; conditions: KB3-1, A2 scFv 50 μg/ml, FIG. 2c
Description: as §2, §3

2780^ADR cells = assay: viability of doxorubicin-exposed cells by [3H]-leucine incorporation; type: cell-based, human; conditions: A2 scFv 0.2 mg/ml before 5-10 μM doxorubicin
Description: Cells were pre-incubated with A2 scFv at a concentration of 0.2 mg/ml, then exposed to 5-10 μM of doxirubicin and then analyzed for [^3H]Leucine content.

[5] = biological target: T2, Pgp on MDR ovarian carcinoma cells 2780^ADR (Homo sapiens, UniProt P08183); assay: immunofluorescence flow-cytometer analysis of cell binding; conditions: A2 scFv 50 μg/ml, FIG. 2b
T2 construct: MDR and Pgp-overexpressing ovarian carcinoma cells 2780^ADR; endogenous in cells; host or cells: 2780^ADR (drug-selected human ovarian carcinoma)
T2 sequence (P08183 whole entry): as above
Description: as §2, §3

[6] = biological target: T3, Pgp on MDR epidermoid carcinoma cells KBV-1 (Homo sapiens, UniProt P08183); assay: as above; conditions: KBV-1, A2 scFv 50 μg/ml, FIG. 2d
T3 construct: MDR and Pgp-overexpressing human carcinoma cells KBV-1; endogenous in cells; host or cells: KBV-1 (KB-V1; drug-selected human epidermoid carcinoma, derived from KB3-1)
Description: as §2, §3

KB3-1 cells = assay: calcein-AM chromophore efflux assay, drug-sensitive cells; type: cell-based, human; conditions: KB3-1, fluorometer, FIG. 4d
[7] = biological target: T4, Pgp drug-efflux activity in EMT^R1 cells (Cricetulus griseus, UniProt P21448); assay: calcein-AM chromophore efflux assay; type: cell-based, rodent (CHO); conditions: EMT^R1, fluorometer, FIG. 4a
T4 construct: a rodent (CHO) MDR cell line EMT^R1; endogenous in cells; host or cells: EMT^R1 (CHO, parental line A8)
T4 sequence (P21448 whole entry): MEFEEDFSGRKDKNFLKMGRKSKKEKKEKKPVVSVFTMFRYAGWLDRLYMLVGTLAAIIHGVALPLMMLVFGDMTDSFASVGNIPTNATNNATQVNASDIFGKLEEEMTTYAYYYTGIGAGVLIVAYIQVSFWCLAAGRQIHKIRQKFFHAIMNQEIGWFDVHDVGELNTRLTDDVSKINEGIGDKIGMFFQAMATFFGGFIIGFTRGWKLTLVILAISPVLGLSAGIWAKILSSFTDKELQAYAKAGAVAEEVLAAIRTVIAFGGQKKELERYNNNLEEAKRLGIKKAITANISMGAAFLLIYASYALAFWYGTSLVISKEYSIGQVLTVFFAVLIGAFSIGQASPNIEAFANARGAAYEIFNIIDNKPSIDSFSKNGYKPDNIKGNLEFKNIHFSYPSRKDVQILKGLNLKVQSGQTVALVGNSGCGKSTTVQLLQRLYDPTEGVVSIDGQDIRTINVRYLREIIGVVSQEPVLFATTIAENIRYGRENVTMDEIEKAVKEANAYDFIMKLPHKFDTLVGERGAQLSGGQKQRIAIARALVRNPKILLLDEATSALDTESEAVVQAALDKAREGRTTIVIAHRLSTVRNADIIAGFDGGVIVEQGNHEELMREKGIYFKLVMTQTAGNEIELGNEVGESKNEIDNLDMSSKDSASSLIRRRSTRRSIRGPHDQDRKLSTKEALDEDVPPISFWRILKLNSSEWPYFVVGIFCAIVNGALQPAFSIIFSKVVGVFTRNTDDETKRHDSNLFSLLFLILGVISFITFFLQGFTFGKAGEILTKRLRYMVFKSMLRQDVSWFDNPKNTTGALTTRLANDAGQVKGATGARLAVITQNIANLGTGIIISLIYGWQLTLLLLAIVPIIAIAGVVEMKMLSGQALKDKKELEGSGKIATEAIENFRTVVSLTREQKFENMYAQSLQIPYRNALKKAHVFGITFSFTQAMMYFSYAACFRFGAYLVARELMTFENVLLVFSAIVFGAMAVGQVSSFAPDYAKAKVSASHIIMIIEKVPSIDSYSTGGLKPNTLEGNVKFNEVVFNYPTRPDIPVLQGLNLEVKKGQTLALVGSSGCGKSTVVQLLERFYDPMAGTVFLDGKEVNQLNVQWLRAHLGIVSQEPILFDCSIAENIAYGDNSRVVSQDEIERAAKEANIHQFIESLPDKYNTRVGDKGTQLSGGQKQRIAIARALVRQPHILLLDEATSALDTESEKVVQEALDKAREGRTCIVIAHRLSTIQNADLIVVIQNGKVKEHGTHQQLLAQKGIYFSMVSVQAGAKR

[8] = biological target: T5, Pgp-derived peptide (SEQ ID NO:1) (Homo sapiens, UniProt P08183); assay: competition binding radio-immunoassay with [125I]-labeled A2 scFv; conditions: competition with [125I]-labeled A2 scFv, interpolated, FIG. 1d; read-out: concentration of cold competitor for 50% binding inhibition (affinity constant)
T5 construct: made in house; host or cells: chemical synthesis
Description: In a competition binding radio-immunoassay the purified A2 scFv (100 μg) was first labeled with [^125I] using the Bolton-Hunter reagent. The [^125I]-labeled A2 scFv antibody was added as a tracer (3-5×10^5 cpm/well) to a flexible microtiter plate, which had been pre-coated with BSA-biotin and the target peptide (SEQ ID NO:1), as described above. A non-labeled (i.e., cold) A2 scFv was then added, as a competitor, to the pre-coated plates at increasing concentrations. Plates were incubated for 1 hr at room temperature, then washed and analyzed by gamma counter.

[9] = system: drug-sensitive cells KB3-1; assay: immuno-histochemical staining; type: binding, human; conditions: drug-sensitive KB3-1, A2 scFv 0.2 mg/ml, FIG. 2h
Description: (§4) Drug sensitive cells and MDR cells were grown to 50% confluence on glass slides, pre-coated with 4% gelatin in PBS, fixed with 2% formaldehyde in PBS, blocked with 1% BSA in PBS at room temperature, then followed by 90 min incubation with A2 scFv (0.2 mg/ml) in PBS containing 1% BSA (room temperature). The slides were then covered with HRP-labeled anti-Myc-antibody (1:500, in PBS containing 1% BSA) for 1 hr, washes with water, then covered with peroxidase substrate, (AEC) for 2-3 min. Slides were then washed with water and counter staining was performed with hematoxylin.

[10] = system: drug-sensitive cells 2780; assay: immuno-histochemical staining; type: binding, human; conditions: 2780, A2 scFv 0.2 mg/ml, FIG. 2f
Description: as §4

streptavidin = streptavidin (Streptomyces avidinii, UniProt P22629); assay: ELISA binding specificity, streptavidin; conditions: FIG. 1b
Description: as §1

[11] = biological target: T6, Pgp on MDR carcinoma cells KBV-1 (Homo sapiens, UniProt P08183); assay: immuno-histochemical staining; type: binding; conditions: MDR KBV-1, A2 scFv 0.2 mg/ml, FIG. 2g
T6 construct: MDR and Pgp-overexpressing human carcinoma cells KBV-1; endogenous in cells; host or cells: KBV-1 (KB-V1; drug-selected human epidermoid carcinoma, derived from KB3-1)
T6 sequence (P08183 whole entry): as the sequence (P08183 whole entry) above
Description: as §4

[12] = biological target: T2, Pgp on MDR ovarian carcinoma cells 2780^ADR; assay: immuno-histochemical staining; type: binding; conditions: A2 scFv 0.2 mg/ml, FIG. 2e
Description: as §4

[13] = biological target: T1, Pgp drug-efflux activity in 2780^ADR cells; assay: calcein-AM chromophore efflux assay; conditions: antibody given before calcein, FIGS. 3c, 3e
A8 cells = assay: calcein-AM chromophore efflux assay, drug-sensitive cells; type: cell-based, rodent (CHO); conditions: A8, fluorometer, FIG. 4e
[14] = biological target: T7, biotinylated Pgp-derived peptide (SEQ ID NO:1) (Homo sapiens, UniProt P08183); assay: saturation ELISA; conditions: interpolated, FIG. 1c
T7 construct: made in house; host or cells: chemical synthesis
From the text: The binding properties of A2 scFv were further characterized using a saturation ELISA. In this experiment, a biotinylated Pgp-derived peptide (SEQ ID NO:1) was bound to plates precoated with BSA-biotin and exposed to increasing amounts of A2 scFv.

B1: A2 scFv: novel anti-Pgp single-chain Fv, about 30 kDa, encoded by SEQ ID NO:2, directed to first extracellular loop peptide SEQ ID NO:1 (protein)
chain: QVQLQQSGPDLVKPGASVKISCKASGYSFTGYYMHWVKQSHGKSLEWIGRANPNNGGTSYNQKFKGKAILTVDKSSSTAYMELRSLTSEDSAVYYCARWDGAYWGQGTLVTVSSGGGGSGGGGSGGGGSDVVMTQTPLSLPVSLGDQASISCRSSQSIVHSNGNTYLEWYLQKPGQSPKLLIYKVSNRFSGVPDRFSGSGSGTDFTLKISRVEAEDLGVYYCFQGSHVPFTFGSGTKLELK
modifications: A2 single chain Fv coding sequence
binding to biotinylated non-target peptide [1]: did not react
effect on calcein uptake in drug-sensitive cells (2780 cells): did not affect the level of calcein accumulation; also recorded: no effect
IC50 [2]: 2600 nM
concentration of maximal inhibitory activity [2]: 100 µg/mL
reactivity with cells (flow cytometer) [3]: no reactivity; also recorded: no effect on fluorescent intensity
reactivity with cells (flow cytometer) [4]: no reactivity; also recorded: no effect on fluorescent intensity
viability of cells exposed to doxorubicin (2780^ADR cells): effectively reduced the viability of cells; also recorded: substantial loss of viability of cells
increase in fluorescent intensity [5]: 10 fold
reactivity with cells (flow cytometer) [5]: strong reactivity
reactivity with cells (flow cytometer) [6]: strong reactivity; also recorded: substantial increase in fluorescent intensity
effect on calcein uptake in drug-sensitive cells (KB3-1 cells): did not affect the level of calcein accumulation; also recorded: no effect
effect on calcein uptake [7]: substantial increases in calcein accumulation; also recorded: substantially higher levels of fluorescence
Kd [8]: 130 nM and ~130 nM
immuno-histochemical staining of cells [9]: did not stain; also recorded: no antibody-cell reaction
immuno-histochemical staining of cells [10]: did not stain; also recorded: no antibody-cell reaction
binding to streptavidin (streptavidin): did not react
immuno-histochemical staining of cells [11]: intense in situ staining; also recorded: positive antibody-cell reaction
immuno-histochemical staining of cells [12]: intense in situ staining; also recorded: positive antibody-cell reaction
effect on calcein uptake / drug efflux activity [13]: substantial increase in fluorescence intensity; also recorded: substantially inhibited drug efflux activity; also recorded: positive dose-response effect
effect on calcein uptake in drug-sensitive cells (A8 cells): did not affect the level of calcein accumulation; also recorded: no effect
Kd ([14]; listed as A2, read-out: concentration required for 50% of maximal binding (affinity constant)): ~150 nM
Kd ([14]; read-out: concentration required for 50% of maximal binding (affinity constant)): 150 nM and ~150 nM
